Test results from the supplement of paper PMC11811203.

B1: THAP1; numbered along this chain (parent)
chain: MVQSCSAYGCKNRYDKDKPVSFHKFPLTRPSLCKEWEAAVRRKNFKPTKYSSICSEHFTPDCFKRECNNKLLKENAVPTIFLCTEPHDKKEDLLEPQEQLPPPPLPPPVSQVDAAIGLLMPPLQTPVNLSVFCDHNYTVEDTMHQRKRIHQLEQQVEKLRKKLKTAQQRCRRQERQLEKLKEVVHFQKEKDDVSERGYVILPNDYFEIVEVPA

Variants of: B1
Assay: THAP1 transcriptional activity (GFP+/GFP- enrichment relative to wild-type constructs) (ratio to WT); higher = more THAP1 activity (PSMB5 reporter activation)
Conditions: with PSMB5 promoter-GFP reporter
How it was run: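 In duplicate, a lentivirus-delivered library with every residue from 2–213 of human THAP1 changed to all 20 amino acids was introduced at MOI ~0.3 into THAP1-knockout HEK-293T cells carrying endogenous PSMB5 tagged by mClover3 knock-in. Five days on, BFP+ cells were binned as GFP-dim or GFP-bright, and Illumina sequencing of genomic DNA amplicons counted each variant. Activity is the bright/dim read fold change, averaged over replicates and scaled to the mean of wild-type synonymous constructs.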

**Q.** How did the THAP1 transcriptional activity turn out when MVQSCSAYGCKNRYDKDKPVSFHKFPLTRPSLCKEWEAAVRRKNFKPTKYSSICSEHFTPDCFKRECNNKLLKENAVPTIFLCTEGHDKKEDLLEPQEQLPPPPLPPPVSQVDAAIGLLMPPLQTPVNLSVFCDHNYTVEDTMHQRKRIHQLEQQVEKLRKKLKTAQQRCRRQERQLEKLKEVVHFQKEKDDVSERGYVILPNDYFEIVEVPA [P86G] was run?
**A.** The THAP1 transcriptional activity was 0.464.

**Q.** Which THAP1 transcriptional activity does the source give for MVQSCSAYGCKNRYDKDKPVSFHKFPLTRPSLCKEWEAAVRRKNFKPTKYSSICSEHFTPDCFKRECNNKLLKENAVPTIFLCTEEHDKKEDLLEPQEQLPPPPLPPPVSQVDAAIGLLMPPLQTPVNLSVFCDHNYTVEDTMHQRKRIHQLEQQVEKLRKKLKTAQQRCRRQERQLEKLKEVVHFQKEKDDVSERGYVILPNDYFEIVEVPA [P86E] here?
**A.** The THAP1 transcriptional activity was 2.07.

**Q.** Which THAP1 transcriptional activity does the source give for MVQSCSAYGCKNRYDKDKPVSFHKFPLTRPSLCKEWEAAVRRKNFKPTKYSSICSEHFTPDCFKRECNNKLLKENAVPTIFLCTELHDKKEDLLEPQEQLPPPPLPPPVSQVDAAIGLLMPPLQTPVNLSVFCDHNYTVEDTMHQRKRIHQLEQQVEKLRKKLKTAQQRCRRQERQLEKLKEVVHFQKEKDDVSERGYVILPNDYFEIVEVPA [P86L] here?
**A.** The THAP1 transcriptional activity was 0.608.

**Q.** MVQSCSAYGCKNRYDKDKPVSFHKFPLTRPSLCKEWEAAVRRKNFKPTKYSSICSEHFTPDCFKRECNNKLLKENAVPTIFLCTECHDKKEDLLEPQEQLPPPPLPPPVSQVDAAIGLLMPPLQTPVNLSVFCDHNYTVEDTMHQRKRIHQLEQQVEKLRKKLKTAQQRCRRQERQLEKLKEVVHFQKEKDDVSERGYVILPNDYFEIVEVPA [P86C] was tested. Which THAP1 transcriptional activity did it give?
**A.** Its THAP1 transcriptional activity is 0.542.

**Q.** With MVQSCSAYGCKNRYDKDKPVSFHKFPLTRPSLCKEWEAAVRRKNFKPTKYSSICSEHFTPDCFKRECNNKLLKENAVPTIFLCTEIHDKKEDLLEPQEQLPPPPLPPPVSQVDAAIGLLMPPLQTPVNLSVFCDHNYTVEDTMHQRKRIHQLEQQVEKLRKKLKTAQQRCRRQERQLEKLKEVVHFQKEKDDVSERGYVILPNDYFEIVEVPA [P86I] as the variant, how does the THAP1 transcriptional activity read?
**A.** The THAP1 transcriptional activity was 2.01.

**Q.** With MVQSCSAYGCKNRYDKDKPVSFHKFPLTRPSLCKEWEAAVRRKNFKPTKYSSICSEHFTPDCFKRECNNKLLKENAVPTIFLCTEAHDKKEDLLEPQEQLPPPPLPPPVSQVDAAIGLLMPPLQTPVNLSVFCDHNYTVEDTMHQRKRIHQLEQQVEKLRKKLKTAQQRCRRQERQLEKLKEVVHFQKEKDDVSERGYVILPNDYFEIVEVPA [P86A] as the variant, how does the THAP1 transcriptional activity read?
**A.** The THAP1 transcriptional activity was 0.874.

**Q.** How did the THAP1 transcriptional activity turn out when MVQSCSAYGCKNRYDKDKPVSFHKFPLTRPSLCKEWEAAVRRKNFKPTKYSSICSEHFTPDCFKRECNNKLLKENAVPTIFLCTEKHDKKEDLLEPQEQLPPPPLPPPVSQVDAAIGLLMPPLQTPVNLSVFCDHNYTVEDTMHQRKRIHQLEQQVEKLRKKLKTAQQRCRRQERQLEKLKEVVHFQKEKDDVSERGYVILPNDYFEIVEVPA [P86K] was run?
**A.** The THAP1 transcriptional activity was 0.623.

**Q.** Which THAP1 transcriptional activity does the source give for MVQSCSAYGCKNRYDKDKPVSFHKFPLTRPSLCKEWEAAVRRKNFKPTKYSSICSEHFTPDCFKRECNNKLLKENAVPTIFLCTEHHDKKEDLLEPQEQLPPPPLPPPVSQVDAAIGLLMPPLQTPVNLSVFCDHNYTVEDTMHQRKRIHQLEQQVEKLRKKLKTAQQRCRRQERQLEKLKEVVHFQKEKDDVSERGYVILPNDYFEIVEVPA [P86H] here?
**A.** Its THAP1 transcriptional activity is 0.865.

**Q.** With MVQSCSAYGCKNRYDKDKPVSFHKFPLTRPSLCKEWEAAVRRKNFKPTKYSSICSEHFTPDCFKRECNNKLLKENAVPTIFLCTEFHDKKEDLLEPQEQLPPPPLPPPVSQVDAAIGLLMPPLQTPVNLSVFCDHNYTVEDTMHQRKRIHQLEQQVEKLRKKLKTAQQRCRRQERQLEKLKEVVHFQKEKDDVSERGYVILPNDYFEIVEVPA [P86F] as the variant, how does the THAP1 transcriptional activity read?
**A.** Its THAP1 transcriptional activity is 0.921.

**Q.** How did the THAP1 transcriptional activity turn out when MVQSCSAYGCKNRYDKDKPVSFHKFPLTRPSLCKEWEAAVRRKNFKPTKYSSICSEHFTPDCFKRECNNKLLKENAVPTIFLCTYPHDKKEDLLEPQEQLPPPPLPPPVSQVDAAIGLLMPPLQTPVNLSVFCDHNYTVEDTMHQRKRIHQLEQQVEKLRKKLKTAQQRCRRQERQLEKLKEVVHFQKEKDDVSERGYVILPNDYFEIVEVPA [E85Y] was run?
**A.** Its THAP1 transcriptional activity is 0.792.

**Q.** With MVQSCSAYGCKNRYDKDKPVSFHKFPLTRPSLCKEWEAAVRRKNFKPTKYSSICSEHFTPDCFKRECNNKLLKENAVPTIFLCTVPHDKKEDLLEPQEQLPPPPLPPPVSQVDAAIGLLMPPLQTPVNLSVFCDHNYTVEDTMHQRKRIHQLEQQVEKLRKKLKTAQQRCRRQERQLEKLKEVVHFQKEKDDVSERGYVILPNDYFEIVEVPA [E85V] as the variant, how does the THAP1 transcriptional activity read?
**A.** Its THAP1 transcriptional activity is 0.702.

**Q.** With MVQSCSAYGCKNRYDKDKPVSFHKFPLTRPSLCKEWEAAVRRKNFKPTKYSSICSEHFTPDCFKRECNNKLLKENAVPTIFLCTSPHDKKEDLLEPQEQLPPPPLPPPVSQVDAAIGLLMPPLQTPVNLSVFCDHNYTVEDTMHQRKRIHQLEQQVEKLRKKLKTAQQRCRRQERQLEKLKEVVHFQKEKDDVSERGYVILPNDYFEIVEVPA [E85S] as the variant, how does the THAP1 transcriptional activity read?
**A.** The THAP1 transcriptional activity was 1.35.

**Q.** For MVQSCSAYGCKNRYDKDKPVSFHKFPLTRPSLCKEWEAAVRRKNFKPTKYSSICSEHFTPDCFKRECNNKLLKENAVPTIFLCTWPHDKKEDLLEPQEQLPPPPLPPPVSQVDAAIGLLMPPLQTPVNLSVFCDHNYTVEDTMHQRKRIHQLEQQVEKLRKKLKTAQQRCRRQERQLEKLKEVVHFQKEKDDVSERGYVILPNDYFEIVEVPA [E85W], which THAP1 transcriptional activity is on record?
**A.** Its THAP1 transcriptional activity is 0.155.

**Q.** How did the THAP1 transcriptional activity turn out when MVQSCSAYGCKNRYDKDKPVSFHKFPLTRPSLCKEWEAAVRRKNFKPTKYSSICSEHFTPDCFKRECNNKLLKENAVPTIFLCTTPHDKKEDLLEPQEQLPPPPLPPPVSQVDAAIGLLMPPLQTPVNLSVFCDHNYTVEDTMHQRKRIHQLEQQVEKLRKKLKTAQQRCRRQERQLEKLKEVVHFQKEKDDVSERGYVILPNDYFEIVEVPA [E85T] was run?
**A.** Its THAP1 transcriptional activity is 0.594.
